The results in this text go back to patent publication US20240166745A1 (Eli Lilly, published 2024).

For assay [1], the target named is T1, cell membrane-expressed human LAG-3/PD-1 (human, UniProt P18627 23-525; Q15116 25-288).
T1 construct: also called Human CD4
The experiment in a line: flow cytometry, labeled antibody on anti-CD3 activated human PBMC, CD8 T cells, percent of cells bound (mean +/- SEM, n=3). The method, then:
Cells were incubated with 10-12 point, 3-fold serial dilutions of the respective labeled antibody (Invitrogen #S20026, Invitrogen #C20029), starting at 30 ug/mL, in PBS+2% FCS for 30 minutes at 4° C. and containing the following: CD4 eBioscience #12-0047-42 or Biolegend #344634; CD8 eBioscience #25-0088-42; CD3 eBioscience 56-0038-82 for human cells and BD #557917 for cyno cells; CD33 eBioscience 45-0338-42 for human cells; Live/Dead eBioscience #65-0865-18. After washing thoroughly, cells were processed on a BD Fortessa or Fortessa X20 cytometer, and data were analyzed with Flowjo software (BD Biosciences). Percent of cells bound by the respective antibody is quantified and graphed with Prism (Graphpad, San Diego, CA).

In another assay the target is T2, Cynomolgus PD-1-ECD (cynomolgus, UniProt B0LAJ3 25-170).
T2 construct: commercial protein; also called cynomolgus PD-1-ECD (Sino Biologicals, Cat #90311-C08H); not shown: C-terminal polyhistidine tag of the vendor product (Sino Biological 90311-C08H)
The experiment in a line: SPR (Biacore T200), antibody captured on PrismA chip, ECD as analyte, 25° C. How it is done: (§1) A Biacore® T200 (Cytiva, Marlborough, MA) was used to measure the binding kinetics and affinities of the LAG-3 antibody to the LAG-3 soluble extracellular domain (ECD) and the bispecific antibody to soluble LAG-3-ECD and PD-1-ECD (human: Sino Biologicals, Cat #10377-H08H; cynomolgus: Sino Biologicals, Cat #90311-C08H) by surface plasmon resonance. Samples were diluted in HBS-EP+ (10 mM Hepes, 150 mM NaCl, 3 mM EDTA, 0.05% Tween-20, pH 7.6) (Teknova Cat #H8022) with 5 g/L of BSA (Jackson ImmunoResearch Cat #001-000-161) running buffer. PrismA Series S Sensor chip (Cat #29650263) is purchased from Cytiva.
(§2) Binding was evaluated using multi-cycle kinetics by an antibody capture method. Each cycle was performed at either 37° C. or 25° C. at a flow rate of 10 μL/min for antibody capture to the PrismA chip and 100 μL/min for analyte association (with 120 sec contact time) and dissociation (900 sec). Each cycle consisted of the following steps: injection of bispecific antibody at 1 μg/mL in HBS-EP+ targeting Rmax values of 125 RU (LAG-3 arm), 294 RU (PD-1 arm) and 63 RU (LAG-3 antibody) on flow cell, injection of analyte in HBS-EP+(concentration range of 62.5 nM to 0.25 nM by two-fold serial dilution for both human PD-1-ECD-His (SEQ ID NO: 40) and human LAG-3-His (SEQ ID NO: 42) followed by 900-second dissociation phase, and regeneration using 10 μL of 10 mM glycine hydrochloride, pH 1.5 over a 60-second contact time utilizing a 10 μL/min flow rate. All analyte concentrations were determined utilizing monomeric molecular weight (MW) values. Association rates (kₒₙ) and dissociation rates (koff) for LAG-3-ECD and PD-1-ECD were evaluated using double referencing by flow-cell one reference subtraction in addition to 0 nM blank subtraction and fit to “1:1 (Langmuir) binding” model in the BIAevaluation software version 4.1. The dissociation constant (KD) was calculated from the binding kinetics according to the relationship KD=Koff/Kₒₙ. Stoichiometry=[RUₘₐₓ/RUcaptured]/[MWanalyte/MWantibody] where MWAntibodyA is 150 kDa. Values are reported as mean±standard deviation.

The next assay deals with T3, Human LAG-3 ECD-His (human, UniProt P18627 23-449).
T3 construct: Soluble analyte in SPR; the entry includes linker and His tag; also called human LAG-3-His
T3 sequence: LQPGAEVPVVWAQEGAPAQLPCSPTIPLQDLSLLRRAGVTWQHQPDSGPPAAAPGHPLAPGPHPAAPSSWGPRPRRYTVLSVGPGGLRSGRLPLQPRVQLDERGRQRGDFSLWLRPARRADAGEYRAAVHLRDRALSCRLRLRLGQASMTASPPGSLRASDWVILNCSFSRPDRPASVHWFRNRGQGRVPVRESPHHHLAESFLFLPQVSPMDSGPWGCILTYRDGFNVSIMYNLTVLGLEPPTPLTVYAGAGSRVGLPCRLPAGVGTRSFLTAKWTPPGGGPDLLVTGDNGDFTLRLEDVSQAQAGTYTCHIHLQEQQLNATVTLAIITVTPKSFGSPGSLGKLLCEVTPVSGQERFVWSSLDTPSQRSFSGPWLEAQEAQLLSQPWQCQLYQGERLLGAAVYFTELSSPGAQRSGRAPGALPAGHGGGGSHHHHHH
The assay is described as above. How it is done:
as §1, §2

The next assay concerns the target T4, Human PD-1 ECD-His (human, UniProt Q15116 25-167).
T4 construct: Soluble analyte in SPR; the entry includes the His tag
The assay is described as above. The method, then:
as §1, §2

Another assay concerns the target T5, Cynomolgus LAG-3-ECD (cynomolgus).
T5 construct: as printed it starts with the N-terminal leader (MWEAQ...) and ends with a His tag; also called Cynomolgus LAG-3 ECD-His
T5 chain: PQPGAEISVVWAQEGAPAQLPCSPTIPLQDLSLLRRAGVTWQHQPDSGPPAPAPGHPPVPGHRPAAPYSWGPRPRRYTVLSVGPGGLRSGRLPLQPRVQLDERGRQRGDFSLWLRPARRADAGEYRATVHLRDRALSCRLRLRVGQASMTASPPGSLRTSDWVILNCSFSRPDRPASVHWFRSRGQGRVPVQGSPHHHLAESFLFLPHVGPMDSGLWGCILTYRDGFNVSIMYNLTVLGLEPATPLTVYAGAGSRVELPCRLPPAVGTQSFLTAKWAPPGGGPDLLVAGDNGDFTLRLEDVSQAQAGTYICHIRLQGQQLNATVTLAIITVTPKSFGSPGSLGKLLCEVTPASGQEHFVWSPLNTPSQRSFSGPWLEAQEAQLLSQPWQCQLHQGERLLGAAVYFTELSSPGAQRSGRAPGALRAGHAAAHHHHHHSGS
Put plainly: SPR (Biacore T200), antibody captured on PrismA chip, ECD as analyte, 37° C. The method, then:
as §1, §2

The target of assay [2] is PathHunter U2OS PD-1/LAG-3 dimerization cell line (human PD-1 aa 1-199-EA and human LAG-3 aa 1-477-PK) (human). Put plainly: cell-based or functional assay.
Chain of PathHunter U2OS PD-1/LAG-3 dimerization cell line (human PD-1 aa 1-199-EA and human LAG-3 aa 1-477-PK) (human) (Q15116 1-199, chain 1 of 2): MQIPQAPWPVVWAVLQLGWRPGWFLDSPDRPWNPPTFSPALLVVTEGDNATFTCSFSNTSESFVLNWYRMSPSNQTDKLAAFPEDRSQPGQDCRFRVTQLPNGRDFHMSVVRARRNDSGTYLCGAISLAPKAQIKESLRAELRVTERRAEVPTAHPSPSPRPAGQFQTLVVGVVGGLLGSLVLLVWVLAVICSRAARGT
Chain of PathHunter U2OS PD-1/LAG-3 dimerization cell line (human PD-1 aa 1-199-EA and human LAG-3 aa 1-477-PK) (human) (P18627 1-477, chain 2 of 2, further chain): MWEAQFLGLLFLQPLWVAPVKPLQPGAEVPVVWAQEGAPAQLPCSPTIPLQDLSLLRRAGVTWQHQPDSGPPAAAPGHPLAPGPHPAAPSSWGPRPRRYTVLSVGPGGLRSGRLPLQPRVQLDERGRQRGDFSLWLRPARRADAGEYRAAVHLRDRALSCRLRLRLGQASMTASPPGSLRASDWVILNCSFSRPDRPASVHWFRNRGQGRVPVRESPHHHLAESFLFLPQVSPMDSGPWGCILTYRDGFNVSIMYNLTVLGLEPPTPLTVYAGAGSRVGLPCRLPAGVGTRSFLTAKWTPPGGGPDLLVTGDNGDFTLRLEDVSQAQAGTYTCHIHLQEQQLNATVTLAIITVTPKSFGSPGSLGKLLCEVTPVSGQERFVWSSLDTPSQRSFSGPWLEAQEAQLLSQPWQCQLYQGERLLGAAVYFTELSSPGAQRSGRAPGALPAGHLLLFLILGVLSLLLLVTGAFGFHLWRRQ

T2 sequence (B0LAJ3 entry or part of it limits assumed): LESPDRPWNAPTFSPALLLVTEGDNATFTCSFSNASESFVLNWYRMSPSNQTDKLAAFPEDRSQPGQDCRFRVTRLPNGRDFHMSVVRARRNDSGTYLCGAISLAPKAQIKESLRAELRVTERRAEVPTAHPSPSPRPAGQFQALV
T4 sequence (Q15116 other isoform, or with tags, fused parts or gaps): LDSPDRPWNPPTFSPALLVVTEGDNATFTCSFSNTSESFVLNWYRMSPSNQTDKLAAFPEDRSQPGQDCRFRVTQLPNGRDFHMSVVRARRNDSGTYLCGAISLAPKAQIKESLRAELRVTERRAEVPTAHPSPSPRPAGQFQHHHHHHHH
T1 sequence (Q15116 25-288 limits assumed, one chain of several): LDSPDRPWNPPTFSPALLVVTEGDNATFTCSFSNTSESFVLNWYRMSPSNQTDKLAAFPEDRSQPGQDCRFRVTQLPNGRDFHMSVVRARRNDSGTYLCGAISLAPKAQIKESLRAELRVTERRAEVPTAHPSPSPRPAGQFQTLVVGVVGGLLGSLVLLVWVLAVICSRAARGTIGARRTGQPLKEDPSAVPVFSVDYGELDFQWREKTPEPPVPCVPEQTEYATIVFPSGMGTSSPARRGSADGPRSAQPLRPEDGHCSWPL

B1: Antibody A (bispecific antibody, human IgG1, kappa, lambda)
heavy 1: not shown
light 1: DIVMTQTPLSLPVTPGEPASISCRSSQSLLDSAEGSTYLDWFLRKPGDSPQLLIYTLSYRASGVPDRFSGSGSGTDFTLKISRVEAEDVGVYYCMQRVEFPYTFGQGTKVEIKRTVAAPSVFIFPPSKEQLKSGTASVVCLLNNFYPREAKVQWKVDNALQSGNSQESVTEQDSKDSTYSLSSTLTLSKADYEKHKVYACEVTHQGLSSPVTKSFNRGEC
heavy 2: QVQLVQSGAEVKKPGASVKVSCKVSGYSLSKYDMSWVRKAPGKGLEWMGIIYTSGYTDYAQEFQGRVTMTEDTSTDTAYMELSSLRSEDTAVYYCATGNPYYTNGFNSWGQGTLVTVSSASTKGPSVFPLAPSSKSTSGGTAALGCLVKDYFPEPVTVSWNSGALTSGVATGPAVLQSSGLYSLSSVVTVPSSSLGTQTYICNVNHKPSNTKVDKRVEPKSCDKTHTCPPCPAPELLGGPSVFLFPPKPKDTLMISRTPEVTCVVVDVSHEDPEVKFNWYVDGVEVHNAKTKPREEQYNSTYRVVSVLTVLHQDWLNGKEYKCKVSNKALPAPIEKTISKAKGQPREPQVYTLPPSREEMTDNQVSLTCLVKGFYPSDIAVEWESNGQPENNYKTTPPVLMSDGSFFLASKLTVDKSRWQQGNVFSCSVMHEALHNHYTQKSLSLSPGK
light 2: RIQMTQSPSSLSASVGDRVTITCQASQSPNNLLAWYQDKPGKAPKLLIYGASDLPSGVPSRFSGSGSGTDFTLTISSLQPEDFATYYCQNNYYVGPVSYAFGGGTKVEIKGQPKAAPSVTLFPPSSEELQANKATLVCYISDFYPGAVTVAWKADSSPVKAGVETTTPSKQSNNKYAAWSYLSLTPEQWKSHRSYSCQVTHEGSTVEKTVAPTEC
notes: IgG-like bispecific with one LAG-3 arm and one PD-1 arm; also called human LAG-3/human PD-1 dual agonist bispecific antibody
The molecule B1 registered an EC50 in assay [1] of 6.8 ng/mL. In addition, the Kd with Cynomolgus PD-1-ECD was found to be 1600 pM; in the assay with Human LAG-3 ECD-His it was 550 pM; with Human PD-1 ECD-His it was 760 pM; with Cynomolgus LAG-3-ECD it was 510 pM. For the same molecule, the off-rate (koff) in the assay with Cynomolgus PD-1-ECD is 0.002 s⁻¹; with Human LAG-3 ECD-His it was 0.019 s⁻¹; in the assay with Human PD-1 ECD-His, 0.00057 s⁻¹; in the assay with Cynomolgus LAG-3-ECD it was 0.01 s⁻¹. For the same molecule, the kon with Cynomolgus PD-1-ECD was found to be 1.3e+06 M⁻¹ s⁻¹; in the assay with Human LAG-3 ECD-His, 3.4e+07 M⁻¹ s⁻¹; with Cynomolgus LAG-3-ECD, 2e+07 M⁻¹ s⁻¹. Moreover, in assay [2], the “EC50 for induction of PD-1 and LAG-3 dimerization (enzyme fragment complementation, luminescence)” value stood at 2970 pM.

B2: Antibody B (bispecific antibody, human IgG1, kappa, lambda)
heavy 1: not shown
light 1: DIVMTQTPLSLPVTPGEPASISCRSSQSLLDSAEGSTYLDWFLRKPGDSPQLLIYTLSYRASGVPDRFSGSGSGTDFTLKISRVEAEDVGVYYCMQRVEFPYTFGQGTKVEIKRTVAAPSVFIFPPSKEQLKSGTASVVCLLNNFYPREAKVQWKVDNALQSGNSQESVTEQDSKDSTYSLSSTLTLSKADYEKHKVYACEVTHQGLSSPVTKSFNRGEC
heavy 2: QVQLVQSGAEVKKPGASVKVSCKVSGYSLSKYDMSWVRKAPGKGLEWMGIIYTSGYTDYAQEFQGRVTMTEDTSTDTAYMELSSLRSEDTAVYYCATGNPYYTNGFNSWGQGTLVTVSSASTKGPSVFPLAPSSKSTSGGTAALGCLVKDYFPEPVTVSWNSGALTSGVATGPAVLQSSGLYSLSSVVTVPSSSLGTQTYICNVNHKPSNTKVDKRVEPKSCDKTHTCPPCPAPELLGGPSVFLFPPKPKDTLMISRTPEVTCVVVDVSHEDPEVKFNWYVDGVEVHNAKTKPREEQYNSTYRVVSVLTVLHQDWLNGKEYKCAVSNKALPAPIEKTISKAKGQPREPQVYTLPPSREEMTDNQVSLTCLVKGFYPSDIAVEWESNGQPENNYKTTPPVLMSDGSFFLASKLTVDKSRWQQGNVFSCSVMHEALHNHYTQKSLSLSPGK
light 2: RIQMTQSPSSLSASVGDRVTITCQASQSPNNLLAWYQDKPGKAPKLLIYGASDLPSGVPSRFSGSGSGTDFTLTISSLQPEDFATYYCQNNYYVGPVSYAFGGGTKVEIKGQPKAAPSVTLFPPSSEELQANKATLVCYISDFYPGAVTVAWKADSSPVKAGVETTTPSKQSNNKYAAWSYLSLTPEQWKSHRSYSCQVTHEGSTVEKTVAPTEC
notes: also called human LAG-3/human PD-1 dual agonist bispecific antibody
In turn, B2 had an EC50 in assay [1] of 7.7 ng/mL. In addition, the Kd with Cynomolgus PD-1-ECD turned out to be 1100 pM; in the assay with Human LAG-3 ECD-His, 530 pM; in the assay with Human PD-1 ECD-His, 760 pM; with Cynomolgus LAG-3-ECD, 480 pM. The koff with Cynomolgus PD-1-ECD came to 0.0018 s⁻¹; with Human LAG-3 ECD-His it was 0.023 s⁻¹; with Human PD-1 ECD-His, 0.00058 s⁻¹; with Cynomolgus LAG-3-ECD, 0.0098 s⁻¹. The kon in the assay with Cynomolgus PD-1-ECD amounted to 1.7e+06 M⁻¹ s⁻¹; with Human LAG-3 ECD-His, 4.3e+07 M⁻¹ s⁻¹; in the assay with Human PD-1 ECD-His, 770000 M⁻¹ s⁻¹; with Cynomolgus LAG-3-ECD, 2e+07 M⁻¹ s⁻¹. The “EC50 for induction of PD-1 and LAG-3 dimerization (enzyme fragment complementation, luminescence)” value in assay [2] turned out to be 2470 pM.
